This note sets out measurements from patent publication US20260209789A1, “TRIGGER-INDUCIBLE MRNA CIRCULARIZATION” (WESTLAKE UNIVERSITY, priority 2022, published 2026).

The test system of the data set is N2A, Hepa1-6 and B16-F10 cells. As to the kind of experiment: AFP promoter-driven NanoLuc reporter and AFP qRT-PCR. It counts as cell-based, murine. Conditions: AFP-deficient cell lines, 48 h. (In general: Real-time PCR tracks product formation cycle by cycle.)

Description: (A) Quantification of AFP-levels using (left panel) TSP-driven reporter gene expression and (right panel) qRT-PCR. (left panel) N2A, Hepa1-6 and B16-F10 cells were co-transfected with a PMusAFP-driven NanoLuc expression vector (pSLM54) and a constitutive FLuc expression vector (pYW99). Luciferase levels were quantified at 48 h after transfection. Data presented are mean±SD of relative luciferase activity (NanoLuc/FLuc) for n=3 individual experiments. (right panel) Relative AFP expression levels in N2A, Hepa1-6 and B16-F10 cells were profiled by qRT-PCR using murine AFP-specific primers listed in Table S1 and normalized to the gene encoding murine ribosomal protein (Rplp0).
Reverse transcription-polymerase chain reaction (RT-PCR). For quantitative analysis, PCR reaction was carried out with an initial step of 95° C. for 30 s followed by 40 cycles of 95° C. for 10 s and 60° C. for 30 s on the Applied Biosystems QuantStudio 1 Real-Time PCR System (ThermoFisher Scientific) using the ChamQ Universal SYBR qPCR Master Mix (Vazyme Biotech; cat. no. Q711-02) and the primers listed in Table S1. The relative cycle threshold (CT) was determined and normalized against the expression level of endogenous human glyceraldehyde 3-phosphate dehydrogenase (GAPDH) or murine ribosomal protein (Rplp0) genes. […]

B1: PAFP: alpha-fetoprotein (AFP) promoter, model tissue-specific promoter (nucleic acid)
DNA: AGGGGAAATAATCTATTTGAACAGTTTAGATGGTGAAGAACATTTGCAGCATTTGCAAGATTTTTTTCCACTCTGAAGTGGTCTTTGTCCTTGAACATAGGATACAAGTGACCCCTGCTCTGTTAATTATTGGCAAATTGCCTAACTTCAACGTAAGGAAATAGAGTCATATGTTTGCTCACTGAAGGTTACTAGTTAACAGGCATCCCTTAAACAGGATATAAAAGGACTTCAGCAGGACTGCTCGAAACATCCCACTTCCAGCACTGCCTGCGGTGAAGGA
Regarding B1, the “promoter-driven reporter gene expression (NanoLuc/FLuc)” value is “non-specific PAFP-driven reporter gene expression”.
